Reference: patent US20200048648

Key:
Experiment in all cases: cell_activity
[1] = tested on: MsCOMT_T03.1 TALE nuclease right monomer (synthetic construct); conditions: value for nuclease pair; alfalfa protoplasts, 28 C, 2 days
[2] = tested on: MsCOMT_T02.1 TALE nuclease left monomer (synthetic construct); conditions: value for nuclease pair; alfalfa protoplasts, 28 C, 2 days
[3] = tested on: MsCOMT_T01.1 TALE nuclease left monomer (synthetic construct); conditions: value for nuclease pair; alfalfa protoplasts, 28 C, 2 days; left site boundary inferred from 15 bp spacer
[4] = tested on: MsCOMT_T01.1 TALE nuclease right monomer (synthetic construct); conditions: value for nuclease pair; alfalfa protoplasts, 28 C, 2 days
[5] = tested on: MsCOMT_T02.1 TALE nuclease right monomer (synthetic construct); conditions: value for nuclease pair; alfalfa protoplasts, 28 C, 2 days
[6] = tested on: MsCOMT_T03.1 TALE nuclease left monomer (synthetic construct); conditions: value for nuclease pair; alfalfa protoplasts, 28 C, 2 days

## GCACCAGTTATGTTGGA (double strand) [MsCOMT_T03.1 right half-site (top strand)]
[1]
  activity (% mutation frequency): 14.1

## TGAACTTGATCTCTTAG (double strand) [MsCOMT_T02.1 left half-site]
[2]
  activity (% mutation frequency): 15.9

## TTCAACAGGTGAAACTC (double strand) [MsCOMT_T01.1 left half-site]
[3]
  activity (% mutation frequency): 12.6

## ACATATCAGATGAAGAA (double strand) [MsCOMT_T01.1 right half-site (top strand)]
[4]
  activity (% mutation frequency): 12.6

## CTGGACCTGGTGCTCAA (double strand) [MsCOMT_T02.1 right half-site (top strand)]
[5]
  activity (% mutation frequency): 15.9

## TTGCTTCTCAGCTACCA (double strand) [MsCOMT_T03.1 left half-site]
[6]
  activity (% mutation frequency): 14.1
